42 molecules from patent publication US20250026849A1 (ARCELLX, published 2025) can be followed below.

The chains are these.
T1: BCMA (Homo sapiens (Human), UniProt Q02223 1-54, limits assumed)
T1 sequence: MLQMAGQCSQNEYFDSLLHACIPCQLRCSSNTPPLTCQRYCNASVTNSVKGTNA

B1: D-domain SEQ ID NO: 232 (designed binder)
chain: MGSWGEFKHRLALIKWYLEALGGSEAELAHFEDWIAVFEVQLQNYKGKGNPEVEALRKEAAAIRDELQAYRHN
B2: D-domain SEQ ID NO: 254 (designed binder)
chain: MGSWGYFKYRLAMIKWYLEALGGSEAELASFESWIAEFEGSLQAYKGKGNPEVEALRKEAAAIRDELQAYRHN
B3: D-domain SEQ ID NO: 237 (designed binder)
chain: MGSWYNFKHRLAIIKWFLEALGGSEAELAVFEVWIADFEHQLQEYKGKGNPEVEALRKEAAAIRDELQAYRHN
B4: D-domain SEQ ID NO: 248 (designed binder)
chain: MGSWHEFKYRLALIKWYLEALGGSEAELATFEHHIAQFEWDLQKYKGKGNPEVEALRKEAAAIRDELQAYRHN
B5: D-domain SEQ ID NO: 233 (designed binder)
chain: MGSWYEFKHRLAIIKWYLEALGGSEAELAKFEAWIAEFEMILQRYKGKGNPEVEALRKEAAAIRDELQAYRHN
B6: D-domain SEQ ID NO: 238 (designed binder)
chain: MGSWDAFKHRLALIKWYLEALGGSEAELAHFEEYIAEFESNLQSYKGKGNPEVEALRKEAAAIRDELQAYRHN
B7: D-domain SEQ ID NO: 239 (designed binder)
chain: MGSWDGFKHRLALIKWYLEALGGSEAELANFENWIAEFEQRLQYYKGKGNPEVEALRKEAAAIRDELQAYRHN
B8: D-domain SEQ ID NO: 235 (designed binder)
chain: MGSWYNFKHRLAIIKWYLEALGGSEAELARFENFIANFETQLQLYKGKGNPEVEALRKEAAAIRDELQAYRHN
B9: D-domain SEQ ID NO: 236 (designed binder)
chain: MGSWFQFKHRLAIIKWQLEALGGSEAELAWFEQWIADFEHQLQHYKGKGNPEVEALRKEAAAIRDELQAYRHN
B10: D-domain SEQ ID NO: 240 (designed binder)
chain: MGSWNGFKHRLAIIKWYLEALGGSEAELASFESYIAEFESGLQEYKGKGNPEVEALRKEAAAIRDELQAYRHN
B11: D-domain SEQ ID NO: 241 (designed binder)
chain: MGSWNSFKHRLALIKWYLEALGGSEAELATFEWYIASFESELQQYKGKGNPEVEALRKEAAAIRDELQAYRHN
B12: D-domain SEQ ID NO: 249 (designed binder)
chain: MGSWNMFKYRLAHIKWYLEALGGSEAELATFEAYIADFEVDLQKYKGKGNPEVEALRKEAAAIRDELQAYRHN
B13: D-domain SEQ ID NO: 234 (designed binder)
chain: MGSWYEFKHRLAIIKWYLEALGGSEAELAHFEQYIADFEGTLQKYKGKGNPEVEALRKEAAAIRDELQAYRHN
B14: D-domain SEQ ID NO: 255 (designed binder)
chain: MGSWHAFKYKLAMIKWYLEALGGSEAELAHFEEWIAEFEALLQEYKGKGNPEVEALRKEAAAIRDELQAYRHN
B15: D-domain SEQ ID NO: 221 (designed binder)
chain: MGSWSEFDGRLGAIWDRLYALGGSEAELAAFEKEIAAFESELQAYKGKGNPEVEYLRDRAAQIREFLQAYRHN
B16: D-domain SEQ ID NO: 229 (designed binder)
chain: MGSWIEFAMRLEAIENRLTALGGSEAELAIFESMIAHFEELLQNYKGKGNPEVEALIHEAFAIHKELWAYRHN
B17: D-domain SEQ ID NO: 228 (designed binder)
chain: MGSWGEFEHRLDPSTCVWLALGGSEAELAAFEKEIAAFESELQAYKGKGNPEVEKLRRGAAVIRHWLQAYRHN
B18: D-domain SEQ ID NO: 226 (designed binder)
chain: MGSWYEFVTRLHAIDHRLKALGGSEADLAAFEKEIAAFESELQAYKGKGNPEVEWLRFYAAGIRMNLQAYRHN
B19: D-domain SEQ ID NO: 224 (designed binder)
chain: MGSWWEFTFRLAAIEFRLEALGGSEAELAAFEKEIAAFESELQAYKGKGNPEVEDLRAIAAEIRKSLQAYRHN
B20: D-domain SEQ ID NO: 225 (designed binder)
chain: MGSWDEFQFRLAAIGFRLGALGGSEAELAAFEKEIAAFESELQAYKGKGNPEVEVLRRQAARIRHLLQAYRHN
B21: D-domain SEQ ID NO: 227 (designed binder)
chain: MGSWSIEFWRLEAIKFRLIALGGSEAELAAFEKEIAAFESELQAYKGKGNPEVEFLRVEAAAIRRVLQAYRHN
B22: D-domain SEQ ID NO: 244 (designed binder)
chain: MGSWYGFKYRLAVIKWYLEALGGSEAELASFEKYIAHFEHDLQAYKGKGNPEVEALRKEAAAIRDELQAYRHN
B23: D-domain SEQ ID NO: 250 (designed binder)
chain: MGSWHGFKYRLAIIKWWLEALGGSEAELAFFEEWIASFERDLQIYKGKGNPEVEALRKEAAAIRDELQAYRHN
B24: D-domain SEQ ID NO: 246 (designed binder)
chain: MGSWYGFKYRLALIKWYLEALGGSEAELASFETYIADFEDLLQAYKGKGNPEVEALRKEAAAIRDELQAYRHN
B25: D-domain SEQ ID NO: 245 (designed binder)
chain: MGSWYGFKYRLAVIKWYLEALGGSEAELASFEKYIAQFEHDLQAYKGKGNPEVEALRKEAAAIRDELQAYRHN
B26: D-domain SEQ ID NO: 263 (designed binder)
chain: MGSWTAFKYRLAIIKFYLEALGGSEAELAHFESYIAHFEDMLQHYKGKGNPEVEALRKEAAAIRDELQAYRHN
B27: D-domain SEQ ID NO: 253 (designed binder)
chain: MGSWSGFKYRLAVIKWYLEALGGSEAELATFEEWIAEFETELQFYKGKGNPEVEALRKEAAAIRDELQAYRHN
B28: D-domain SEQ ID NO: 259 (designed binder)
chain: MGSWYNFKYRLAIIKFYLEALGGSEAELAQFEIWIAEFEHDLQGYKGKGNPEVEALRKEAAAIRDELQAYRHN
B29: D-domain SEQ ID NO: 251 (designed binder)
chain: MGSWHGFKYRLAVIKWYLEALGGSEAELAMFEGWIAQFEITLQQYKGKGNPEVEALRKEAAAIRDELQAYRHN
B30: D-domain SEQ ID NO: 256 (designed binder)
chain: MGSWQHFKYRLAIIKWYLEALGGSEAELAFFESFIAKFEHDLQKYKGKGNPEVEALRKEAAAIRDELQAYRHN
B31: D-domain SEQ ID NO: 252 (designed binder)
chain: MGSWQGFKYRLAVIKWMLEALGGSEAELAFFENWIAEFETKLQQYKGKGNPEVEALRKEAAAIRDELQAYRHN
B32: D-domain SEQ ID NO: 258 (designed binder)
chain: MGSWGAFKYRLAIIKFYLEALGGSEAELARFEEFIANFEHDLQNYKGKGNPEVEALRKEAAAIRDELQAYRHN
B33: D-domain SEQ ID NO: 257 (designed binder)
chain: MGSWNDFKYRLAIIKYYLEALGGSEAELAHFESYIASFEHDLQNYKGKGNPEVEALRKEAAAIRDELQAYRHN
B34: D-domain SEQ ID NO: 242 (designed binder)
chain: MGSWSDFKYRLAVIKFYLEALGGSEAELASFESFIAHFEDDLQKYKGKGNPEVEALRKEAAAIRDELQAYRHN
B35: D-domain SEQ ID NO: 247 (designed binder)
chain: MGSWSTFKYHLAVIKWYLEALGGSEAELASFEDYIAQFETDLQEYKGKGNPEVEALRKEAAAIRDELQAYRHN
B36: D-domain SEQ ID NO: 243 (designed binder)
chain: MGSWSGFKYRLAVIKFYLEALGGSEAELASFELFIAKFEIDLQNYKGKGNPEVEALRKEAAAIRDELQAYRHN
B37: D-domain SEQ ID NO: 222 (designed binder)
chain: MGSWGEFEGRLHAIRSRLSALGGSEAELAAFEKEIAAFESELQAYKGKGNPEVEVLRGYAAWIRALLQAYRHN
B38: D-domain SEQ ID NO: 223 (designed binder)
chain: MGSWGEFNGRLGAIRERLQALGGSEAELAAFEKEIAAFESELQAYKGKGNPEVEFLRAYAASIRAVLQAYRHN
B39: D-domain SEQ ID NO: 230 (designed binder)
chain: MGSWNEFYQRLEAIENRLQALGGSEAELAMFEVRIALFEDMLQGYKGKGNPEVEALKQEAIAILRELIAYRHN
B40: D-domain SEQ ID NO: 231 (designed binder)
chain: MGSWNEFYDRLRAIKKRLYALGGSEAELADFEEDIAQFEVDLQDYKGKGNPEVEALHREAHAITHELWAYRHN
B41: D-domain SEQ ID NO: 260 (designed binder)
chain: MGSWEQFKYRLAIIKYMLEALGGSEAELAWFESWIANFESDLQHYKGKGNPEVEALRKEAAAIRDELQAYRHN
B42: D-domain SEQ ID NO: 261 (designed binder)
chain: MGSWQQFKYRLAIIKYYLEALGGSEAELAGFETYIAKFEEVLQSYKGKGNPEVEALRKEAAAIRDELQAYRHN

In this assay the target is T1, BCMA. The experiment in a line: ELISA, format not described. Also on record: unit not given here.
Turning to B1, the ELISA_avg was determined as 17.1.

For B2, the ELISA_avg was 13. B3 yielded an ELISA_avg of 16.4. Turning to B4, the ELISA_avg is 16.2. The same measure for B5: 5.5. Regarding B6, the ELISA_avg is 13.

The molecule B7 gave an ELISA_avg of 23.6.

As for B8, the ELISA_avg stood at 6.76. The figure for B9 is 10.4. The same measure for B10: 16.5; for B11: 10.3; for B12: 16.3. The same measure for B13: 14.8; for B14: 11.6. B15: the ELISA_avg amounted to 10. B16: the ELISA_avg stood at 10.7.

Turning to B17, the ELISA_avg is 4.05. The same measure for B18: 4.12; for B19: 5.75; for B20: 6.16. As to B21, the ELISA_avg is 8.43. The figure for B22 is 9.05; for B23 it is 6.03; for B24 it is 13.

As to B25, the ELISA_avg was 7.63. In turn, B26 returned an ELISA_avg of 7.43.

For B27, the ELISA_avg is 14.

The molecule B28 yielded an ELISA_avg of 19.9. The same measure for B29: 5.99; for B30: 8.91; for B31: 7.75. On to B32, for which the ELISA_avg turned out to be 12.9. The figure for B33 is 15.1; for B34 it is 13. The figure for B35 is 11.7; for B36 it is 13.1; for B37 it is 6.17. The figure for B38 is 4.95; for B39 it is 6.01; for B40 it is 12.4. As to B41, the ELISA_avg came out at 11.

Consider B42, for which the ELISA_avg came to 15.1.
